These results are taken from US20250129150A1 (APOGEE THERAPEUTICS, published 2025).

Changes are numbered by the printed parent chain. Several values for one entry are separate records, joined by “and”; a condition that tells them apart may be missing. Identical values can stand only once.

For assay [1], the target named is T1, hIL-13 (human, UniProt P35225 35-146, limits assumed). The experiment in a line: cell-based or functional assay.
For assay [2], the target named is T1, hIL-13. Put plainly: ELISA.
Assay [3] deals with T1, hIL-13. The experiment in a line: cell-based or functional assay. This is another data set of the same source.
In assay [4] the target is T1, hIL-13. The experiment in a line: cell-based or functional assay. This is another data set of the same source.
In assay [5] the target is T1, hIL-13. Put plainly: cell-based or functional assay. This is another data set of the same source.
Assay [6] has as its target T2, Recombinant Human IL-13 Protein, His Tag (Acro Cat. IL3-H52H4) (human, UniProt P35225 35-146).
T2 construct: Bought protein; also called Hu IL-13; not shown: His Tag
The experiment in a line: SPR (Biacore 8K), mAb captured on Protein G chip, IL-13 as analyte. On the procedure: (§1) Samples were injected in a multi-cycle manner over freshly captured mAb, by regenerating the capture surfaces with injection of glycine pH 1.5 for 30 sec at a flow rate of 30 μL/min. The data was processed and analyzed with Biacore Insight Evaluation Software Version 2.0.15.12933 (GE Healthcare) as follows. […] The responses from the two buffer blank injections were then subtracted from the reference subtracted data (2-1) to yield double-referenced data, which were fit to an 1:1 binding model to determine the apparent association (ka) and dissociation rate constants (kd). Their ratio provided the apparent equilibrium dissociation constant or affinity constant (KD=kd/ka).
A general note: In SPR one partner is held on a chip, and binding of the other changes the refractive index at the surface.

Assay [7] has as its target T3, Recombinant Cynomolgus IL-13 Protein, His Tag (SINO BIOLOGICAL, Cat. 11057-C07H) (cynomolgus monkey, UniProt Q5I6E4 19-132 (Macaca thibetana entry)).
T3 construct: also called Cyno IL-13; cynomolgus monkey IL-13
T3 chain: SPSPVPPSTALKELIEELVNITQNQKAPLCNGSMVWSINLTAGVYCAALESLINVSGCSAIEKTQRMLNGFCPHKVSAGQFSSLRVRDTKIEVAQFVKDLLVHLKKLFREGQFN
The description is as above. On the procedure:
as §1

For assay [8], the target named is biotinylated hIL-13 (human, UniProt P35225 35-146, limits assumed, biotinylated (site not stated)). Put plainly: FACS; blockade of biotinylated hIL-13 (0.05 ug/mL) binding to HEK293 cells expressing hIL-13Rα1/hIL-4Rα. How it is done:
Briefly, HEK293 previously transduced to stably express both hIL-13Rα and hIL-4Rα were cultured and harvested. Cells were seeded at 200,000 cells in 100 uL per well. Cells were washed and the supernatant was discarded. […] The cells were stained in this mixture at 4° C. for 1 hour. […] Cells were incubated at 4° C. for 1 hour, protected from light. Cells were then washed and the median fluorescence intensity (MFI) of cells in each well were recorded by FACS using a BD FACSCanto II. Subsequent data were analyzed using GraphPad Prism.
On the technique in general: In flow cytometry, cells or beads pass a laser one at a time.

T1 sequence (P35225 other isoform, or with tags, fused parts or gaps limits assumed): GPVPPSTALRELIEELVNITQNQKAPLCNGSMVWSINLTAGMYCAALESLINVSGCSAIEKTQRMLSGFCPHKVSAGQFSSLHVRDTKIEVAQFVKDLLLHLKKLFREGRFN
T2 sequence (P35225 other isoform, or with tags, fused parts or gaps limits assumed): as above
Sequence of biotinylated hIL-13 (P35225 other isoform, or with tags, fused parts or gaps limits assumed): as above

B1: Construct 2 (antibody, human IgG1, kappa)
heavy: QVTLRESGPALVKPTQTLTLTCTVSGFSLSAYSVNWIRQPPGKALEWLAMIWGDGKIVYNSALKSRLTISKDTSKNQVVLTMTNMDPVDTATYYCAGDGYYPYAMDNWGQGSLVTVSSASTKGPSVFPLAPSSKSTSGGTAALGCLVKDYFPEPVTVSWNSGALTSGVHTFPAVLQSSGLYSLSSVVTVPSSSLGTQTYICNVNHKPSNTKVDKKVEPKSCDKTHTCPPCPAPELAGAPSVFLFPPKPKDTLYITREPEVTCVVVDVSHEDPEVKFNWYVDGVEVHNAKTKPREEQYNSTYRVVSVLTVLHQDWLNGKEYKCKVSNKALPAPIEKTISKAKGQPREPQVYTLPPSRDELTKNQVSLTCLVKGFYPSDIAVEWESNGQPENNYKTTPPVLDSDGSFFLYSKLTVDKSRWQQGNVFSCSVMHEALHNHYTQKSLSLSPG
light: DIVMTQSPDSLSVSLGERATINCRASKSVDSYGNSFMHWYQQKPGQPPKLLIYLASNLESGVPDRFSGSGSGTDFTLTISSLQAEDVAVYYCQQNNEDPRTFGGGTKVEIKRTVAAPSVFIFPPSDEQLKSGTASVVCLLNNFYPREAKVQWKVDNALQSGNSQESVTEQDSKDSTYSLSSTLTLSKADYEKHKVYACEVTHQGLSSPVTKSFNRGEC
In the case of B1, in assay [1], the “TARC Release IC50 (A549 cells)” value was determined as 0.9 nM.

B2: Construct 130 (antibody, human IgG1, kappa, L234A L235A)
heavy: B1 heavy with L235A, A238G
light: B1 light
notes: also called Lebrikizumab-HC; Lebrikizumab-LC
With B2, the equilibrium dissociation constant (Kd) in assay [2] came to 0.027 nM; in assay [6] it was 0.112 nM; in assay [7], 0.227 nM. Further, the “pSTAT6 Inhibition IC50 (HT-29 cells)” value in assay [3] was 0.28 nM. Besides, the “TARC Inhibition IC50 (A549 cells)” value in assay [4] is 1 nM. The “TF-1 Proliferation Inhibition IC50” value in assay [5] amounted to 0.15 nM. The IC50 in assay [8] turned out to be 1.05 nM.

B3: Construct 131 (antibody, human IgG1, kappa, L234A L235A)
heavy: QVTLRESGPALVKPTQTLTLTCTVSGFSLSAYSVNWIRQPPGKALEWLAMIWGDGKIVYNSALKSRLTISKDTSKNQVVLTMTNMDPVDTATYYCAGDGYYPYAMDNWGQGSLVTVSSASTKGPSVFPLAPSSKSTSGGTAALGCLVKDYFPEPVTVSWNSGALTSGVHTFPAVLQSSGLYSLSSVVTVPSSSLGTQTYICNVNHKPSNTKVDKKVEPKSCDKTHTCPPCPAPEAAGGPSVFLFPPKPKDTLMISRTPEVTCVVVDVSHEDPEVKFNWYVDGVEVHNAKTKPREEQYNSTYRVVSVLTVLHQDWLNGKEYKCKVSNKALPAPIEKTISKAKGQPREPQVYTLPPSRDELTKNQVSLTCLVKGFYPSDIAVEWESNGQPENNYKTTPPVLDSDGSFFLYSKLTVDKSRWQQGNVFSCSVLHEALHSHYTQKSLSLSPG
light: B1 light
notes: as for B2
For the molecule B3, the Kd was 0.019 nM in assay [2], 0.0756 nM in assay [6] and 0.123 nM in assay [7]. In addition, the “pSTAT6 Inhibition IC50 (HT-29 cells)” value in assay [3] is 0.22 nM. Moreover, the “TARC Inhibition IC50 (A549 cells)” value in assay [4] was 0.99 nM. The “TF-1 Proliferation Inhibition IC50” value in assay [5] is 0.13 nM. In assay [8], the IC50 stood at 0.79 nM.

B4: Construct 96 (antibody, human IgG1, kappa, V domains shown)
VH: EVQLLESGGGLVQPGGSLRLSCAASGFSLNAYSVNWVRQAPGKGLEWLGMIWGDGKIVYNSALKSRLTISKDSSKNTVYLQMNSLRAEDTAVYYCAGDGYYPYAMDNWGQGTTVTVSS
VL: DIQLTQSPSSLSASVGDRVTITCRASKSVDSYGNSFMHWYQQKPGKAPKLLIYLASDLESGVPSRFSGSGSGTDFTLTISSLQPEDFATYYCQQNNEDPRTFGGGTKVEIKR
As to B4, the “TARC Release IC50 (A549 cells)” value in assay [1] came to 1 nM.

B5: Construct 107 (antibody, human IgG1, kappa, V domains shown)
VH: B4 VH with N30H
VL: B4 VL with D57N
On to B5, for which the “TARC Release IC50 (A549 cells)” value in assay [1] worked out at 1.3 nM.

B6: Construct 110 (antibody, human IgG1, kappa, V domains shown)
VH: B4 VH with N30S
VL: B4 VL with D57N
As for B6, the “TARC Release IC50 (A549 cells)” value in assay [1] worked out at 1 nM.

B7: Construct 108 (antibody, human IgG1, kappa, V domains shown)
VH: B4 VH with N30D
VL: B4 VL with D57N
As for B7, the “TARC Release IC50 (A549 cells)” value in assay [1] worked out at 1 nM.

B8: Construct 114 (antibody, human IgG1, kappa, V domains shown)
VH: B4 VH with A31Q
VL: B4 VL with D57N
For the molecule B8, the “TARC Release IC50 (A549 cells)” value in assay [1] was 1.1 nM.

B9: Construct 15 (antibody, human IgG1, kappa)
heavy: EVQLQESGPGLVKPSETLSLTCTVSGFSLNAYSVNWIRQPPGKGLEWLGMIWGDGKIVYNSALKSRLTISKDSSKNQVSLKLSSVTAADTAVYYCAGDGYYPYAMDNWGQGTTVTVSSASTKGPSVFPLAPSSKSTSGGTAALGCLVKDYFPEPVTVSWNSGALTSGVHTFPAVLQSSGLYSLSSVVTVPSSSLGTQTYICNVNHKPSNTKVDKKVEPKSCDKTHTCPPCPAPELAGAPSVFLFPPKPKDTLYITREPEVTCVVVDVSHEDPEVKFNWYVDGVEVHNAKTKPREEQYNSTYRVVSVLTVLHQDWLNGKEYKCKVSNKALPAPIEKTISKAKGQPREPQVYTLPPSRDELTKNQVSLTCLVKGFYPSDIAVEWESNGQPENNYKTTPPVLDSDGSFFLYSKLTVDKSRWQQGNVFSCSVMHEALHNHYTQKSLSLSPG
light: DIQLTQSPSSLSASVGDRVTITCRASKSVDSYGNSFMHWYQQKPGKAPKLLIYLASNLESGVPSRFSGSGSGTDFTLTISSLQPEDFATYYCQQNNEDPRTFGGGTKVEIKRTVAAPSVFIFPPSDEQLKSGTASVVCLLNNFYPREAKVQWKVDNALQSGNSQESVTEQDSKDSTYSLSSTLTLSKADYEKHKVYACEVTHQGLSSPVTKSFNRGEC
Turning to B9, the “TARC Release IC50 (A549 cells)” value in assay [1] was 0.9 nM.

B10: Construct 19 (antibody, human IgG1, kappa)
heavy: EVQLLESGGGLVQPGGSLRLSCAASGFSLNAYSVNWVRQAPGKGLEWLGMIWGDGKIVYNSALKSRLTISKDSSKNTVYLQMNSLRAEDTAVYYCAGDGYYPYAMDNWGQGTTVTVSSASTKGPSVFPLAPSSKSTSGGTAALGCLVKDYFPEPVTVSWNSGALTSGVHTFPAVLQSSGLYSLSSVVTVPSSSLGTQTYICNVNHKPSNTKVDKKVEPKSCDKTHTCPPCPAPELAGAPSVFLFPPKPKDTLYITREPEVTCVVVDVSHEDPEVKFNWYVDGVEVHNAKTKPREEQYNSTYRVVSVLTVLHQDWLNGKEYKCKVSNKALPAPIEKTISKAKGQPREPQVYTLPPSRDELTKNQVSLTCLVKGFYPSDIAVEWESNGQPENNYKTTPPVLDSDGSFFLYSKLTVDKSRWQQGNVFSCSVMHEALHNHYTQKSLSLSPG
light: B9 light
Take B10: in assay [1], the “TARC Release IC50 (A549 cells)” value is 1.1 nM and 1 nM.

B11: Construct 98 (antibody, human IgG1, kappa)
heavy: B10 heavy
light: B9 light with N57E
Take B11: the “TARC Release IC50 (A549 cells)” value in assay [1] was 0.9 nM.

A word on the Kd: it is the concentration at which binding is half-saturated. Usually IC50 stands for the concentration needed to halve the response being measured.
